The results in this text go back to paper PMC5314801 (Nucleic Acids Research, 2016).

Data set [1] addresses T1, RsaL (crystal) (UniProt Q9X7H4 1-80).
T1 sequence: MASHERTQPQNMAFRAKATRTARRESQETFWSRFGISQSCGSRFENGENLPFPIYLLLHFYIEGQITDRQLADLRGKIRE
Briefly: X-ray crystallography.

Data set [2] concerns the molecule itself. Briefly: crystal structure.
Data set [3] concerns the molecule itself. Briefly: SEC.

B1: lasI promoter crystal duplex DNA_F/DNA_R (dsDNA)
DNA 1: AAAAATTATGAAATTTGCATAAATTC
DNA 2: TGAATTTATGCAAATTTCATAATTTT
Turning to B1, in data set [1], the binding result is on record as “binds”.

B2: RsaL (natural protein, Pseudomonas aeruginosa, UniProt Q9X7H4 1-80, looked up)
chain: MASHERTQPQNMAFRAKATRTARRESQETFWSRFGISQSCGSRFENGENLPFPIYLLLHFYIEGQITDRQLADLRGKIRE
Turning to B2, in data set [2], the binding result is “binds”.

B3: RsaL^Q38A (natural protein, Pseudomonas aeruginosa, UniProt Q9X7H4 1-80, looked up)
chain: MASHERTQPQNMAFRAKATRTARRESQETFWSRFGISASCGSRFENGENLPFPIYLLLHFYIEGQITDRQLADLRGKIRE
With B3, the stoichiometry N (usually a count of units in the complex or per binding partner) in data set [3] turned out to be 2.

B4: RsaL R20A (natural protein, Pseudomonas aeruginosa, UniProt Q9X7H4 1-80, looked up)
chain: MASHERTQPQNMAFRAKATATARRESQETFWSRFGISQSCGSRFENGENLPFPIYLLLHFYIEGQITDRQLADLRGKIRE
For B4, in data set [3], the “stoichiometry N” value worked out at 2.

B5: RsaL^R43A (natural protein, Pseudomonas aeruginosa, UniProt Q9X7H4 1-80, looked up)
chain: MASHERTQPQNMAFRAKATRTARRESQETFWSRFGISQSCGSAFENGENLPFPIYLLLHFYIEGQITDRQLADLRGKIRE
Regarding B5, in data set [3], the “stoichiometry N” value worked out at 2.

B6: RsaL^Q27A (natural protein, Pseudomonas aeruginosa, UniProt Q9X7H4 1-80, looked up)
chain: MASHERTQPQNMAFRAKATRTARRESAETFWSRFGISQSCGSRFENGENLPFPIYLLLHFYIEGQITDRQLADLRGKIRE
In the case of B6, in data set [3], the “stoichiometry N” value is 2.

B7: RsaL with Glu45 mutated to Ala (natural protein, Pseudomonas aeruginosa, UniProt Q9X7H4 1-80, looked up)
chain: MASHERTQPQNMAFRAKATRTARRESQETFWSRFGISQSCGSRFANGENLPFPIYLLLHFYIEGQITDRQLADLRGKIRE
For B7, the “stoichiometry N” value in data set [3] came out at 2.
